Results reported in publication PMC5507626 (Structure (London, England : 1993), 2017).
Positions count from the first letter of the chain named. Names and notes keep the numbering of the source.

B1: TPR(2-142) F113M (domain or fragment, human, UniProt P12270 2-142, looked up)
chain: AAVLQQVLERTELNKLPKSVQNKLEKFLADQQSEIDGLKGRHEKFKVESEQQYFEIEKRLSHSQERLVNETRECQSLRLELEKLNNQLKALTEKNKELEIAQDRNIAIQSQMTRTKEELEAEKRDLIRTNERLSQELEYLT
modifications: selenomethionine (SeMet construct)
B2: TPR(2-142) F55M/F113M (domain or fragment, human, UniProt P12270 2-142, looked up)
chain: B1 chain with F54M
modifications: selenomethionine (SeMet construct)

Assays:
crystal structure = biological target: the molecule itself; experiment: crystal structure
SEC = biological target: the molecule itself; experiment: SEC

Protein	stoichiometry N (crystal structure)	stoichiometry N (SEC)
B1	4	
B2	2	4
